Experimental data from PMC3098264, “Crystal Structure of the PAC1R Extracellular Domain Unifies a Consensus Fold for Hormone Recognition by Class B G-Protein Coupled Receptors” (PLoS ONE, 2011).
Entries after “also recorded” stand apart in the source; their conditions may differ.

Molecular target: T1, human PAC1R ECD (MBP-PAC1R (25–140)-His6) (Homo sapiens, UniProt P41586)
T1 construct: made in house; host or cells: E. coli Origami B (DE3), co-expressed with DsbC from pET-Duet1
T1 sequence (P41586 25-140 isoform P41586-3): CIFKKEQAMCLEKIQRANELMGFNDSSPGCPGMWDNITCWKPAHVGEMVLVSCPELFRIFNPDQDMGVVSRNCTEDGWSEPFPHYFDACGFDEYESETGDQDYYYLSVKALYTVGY
Experiment: AlphaScreen competitive peptide binding assay (unlabelled PACAP peptides vs biotin-PACAP (6–38)-NH2)
Details: Ala scanning mutants of PACAP (15–31), 120 µM untagged competing peptides, 40 nM protein and biotinylated PACAP, 20°C, five hours, pH 7.4
Description: The binding of PAC1R with a 35 residue PACAP peptide was analysed using the histidine detection kit of AlphaScreen® luminescent proximity assay from PerkinElmer. All binding assays were performed without cleaving the MBP tag from the receptor ECD. Using its C-terminal His tag, PAC1R was bound to Ni-chelate coated acceptor beads (5 µg/ml) at the final concentrations of 40 nM. Similarly, biotinylated PACAP was bound to streptavidin coated donor beads (5 µg/ml) at the final concentrations of 40 nM. The protein and peptide were pre-incubated with the respective beads for one hour (to ensure maximal binding to the beads), then they were allowed to interact with each other at 20°C for five hours. To perform competitive binding assays, 120 µM of the untagged competing peptides were added at time 0 of the five hour protein-peptide interaction period. All interactions were performed in the background of 50 mM MOPS pH 7.4, 150 mM NaCl and 7 mg/ml BSA. The binding signals were measured in a 384-well microplate using an Envision 2104 plate reader (PerkinElmer). The obtained data for competitive peptide binding were fit as a non-linear regression curve using the variable slope dose-response inhibition analysis using the Prism5.0 (GraphPad). To ensure the specificity of the competing peptides, a control peptide of biotin-Gly6-His6 was used in the same assay setup.

Q: With “K20A′: Ala scanning mutant of PACAP (15–31) (KQMAVAKYLAAVLGKRY; Pituitary adenylate cyclase-activating polypeptide 38; UniProt P18509 146-162, looked up, variant K20A)” as the substance, how does the “effect of Ala mutation in PACAP (15–31) on binding to PAC1R ECD (Ala scanning)” value (“effect of Ala mutation in PACAP” below) read?
A: The value was “affect the binding to PAC1R the most; also recorded: almost completely abolishes the ability of the peptide to bind the receptor ECD”.

Q: Which “effect of Ala mutation in PACAP” value does the source give for “L27A′: Ala scanning mutant of PACAP (15–31) (KQMAVKKYLAAVAGKRY; Pituitary adenylate cyclase-activating polypeptide 38; UniProt P18509 146-162, looked up, variant L27A)” here?
A: Its value is “seem to play important roles in the binding; also recorded: affect the binding to PAC1R the most”.

Q: With “V19A′: Ala scanning mutant of PACAP (15–31) (KQMAAKKYLAAVLGKRY; Pituitary adenylate cyclase-activating polypeptide 38; UniProt P18509 146-162, looked up, variant V19A)” as the substance, how does the “effect of Ala mutation in PACAP” value read?
A: The value was “seem to play important roles in the binding; also recorded: affect the binding to PAC1R the most”.
